The source of these data is paper PMC9951844.

Test [1] addresses SARS-CoV-2 Omicron BA.1 spike antigen of the SPR column (construct not stated) (SARS-CoV-2). As to the kind of experiment: SPR.
Test [2] deals with SARS-CoV-2 Delta spike antigen of the SPR column (construct not stated) (SARS-CoV-2). Nature of the test: SPR.

B1: YB9-258 (antibody, V domains shown)
VH: EVQLVESGGGLIQPGGSLRLSCAASGLTVSSNYMHWVRQAPGKGLEWVSVLYAGGSAFYADSVKGRFTISRNNSKNTLYLQMNSLRAEDTAIYYCARGLGDYLDSWGQGTLVTVSS
VL: DIQMTQSPSSVSASVGDRVTITCRASQGIGSWLAWYQQKPGKAPQLLIYAASTLQSGVPPRFSGSGSGTDFTLTITSLQPEDFASYYCQQANSVLALTFGGGTKVEIK
Regarding B1, the Kd in test [1] turned out to be 6.06 nM; in test [2], 0.00391 nM.
